Substitutions are numbered along the chain they refer to. Names and notes keep the numbering of the source.
What was measured:
[1] = target: T1, human MASP-2 (human, UniProt O00187 16-686); assay: cell-based or functional assay
[2] = target: T1, human MASP-2; assay: cell-based or functional assay; remark: listed apart in the source
[3] = target: T1, human MASP-2; assay: cell-based or functional assay; remark: listed apart in the source
[4] = target: T1, human MASP-2; assay: cell-based or functional assay; remark: listed apart in the source
[5] = target: T1, human MASP-2; assay: selectivity for human MASP-2 over C1s (method not detailed; see FIG. 16)
[6] = target: T2, African Green monkey MASP-2 (in African Green monkey serum) (African Green monkey); assay: cell-based or functional assay
[7] = target: rat MASP-2 (in rat serum) (rat, UniProt Q9JJS8 20-685); assay: cell-based or functional assay
[8] = target: T1, human MASP-2; assay: cell-based or functional assay; remark: listed apart in the source
[9] = target: T1, human MASP-2; assay: cell-based or functional assay; remark: listed apart in the source
[10] = target: T2, African Green monkey MASP-2 (in African …); assay: cell-based or functional assay; remark: listed apart in the source
[11] = target: T3, human MASP-2A (catalytically inactive human MASP-2, Ser618 to Ala618) (human, UniProt O00187 16-686); assay: SPR (Biacore), MASP-2A amine coupled to CM5 chip, scFv monomer in solution
T3 construct: the ELISA and Biacore methods say only 'MASP-2A', so a tag may have been present; also called huMASP2A; huMASP-2A

[12] = target: T1, human MASP-2; assay: cell-based or functional assay; remark: listed apart in the source
[13] = target: T2, African Green monkey MASP-2 (in African …); assay: cell-based or functional assay; remark: listed apart in the source
[14] = target: T1, human MASP-2; assay: titration ELISA on MASP-2 (10 µg/ml)

T1 sequence (O00187 16-686): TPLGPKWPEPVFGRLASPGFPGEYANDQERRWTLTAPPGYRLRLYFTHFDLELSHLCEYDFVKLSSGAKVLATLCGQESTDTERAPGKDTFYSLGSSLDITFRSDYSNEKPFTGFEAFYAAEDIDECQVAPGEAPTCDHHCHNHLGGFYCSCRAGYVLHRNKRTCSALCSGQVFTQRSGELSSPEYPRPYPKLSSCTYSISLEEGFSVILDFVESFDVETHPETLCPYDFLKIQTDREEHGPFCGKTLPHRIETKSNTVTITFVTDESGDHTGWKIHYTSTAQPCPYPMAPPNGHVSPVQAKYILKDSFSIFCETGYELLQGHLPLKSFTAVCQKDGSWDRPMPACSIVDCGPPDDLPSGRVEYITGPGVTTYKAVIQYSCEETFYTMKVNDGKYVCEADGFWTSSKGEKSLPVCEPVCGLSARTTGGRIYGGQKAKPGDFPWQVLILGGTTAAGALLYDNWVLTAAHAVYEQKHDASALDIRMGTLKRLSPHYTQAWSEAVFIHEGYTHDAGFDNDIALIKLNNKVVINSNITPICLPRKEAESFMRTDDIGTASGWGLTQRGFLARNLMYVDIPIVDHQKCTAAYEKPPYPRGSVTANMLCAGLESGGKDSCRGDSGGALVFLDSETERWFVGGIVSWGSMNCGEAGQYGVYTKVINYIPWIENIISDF
rat MASP-2 (in rat serum), sequence (Q9JJS8 other isoform, or with tags, fused parts or gaps limits assumed): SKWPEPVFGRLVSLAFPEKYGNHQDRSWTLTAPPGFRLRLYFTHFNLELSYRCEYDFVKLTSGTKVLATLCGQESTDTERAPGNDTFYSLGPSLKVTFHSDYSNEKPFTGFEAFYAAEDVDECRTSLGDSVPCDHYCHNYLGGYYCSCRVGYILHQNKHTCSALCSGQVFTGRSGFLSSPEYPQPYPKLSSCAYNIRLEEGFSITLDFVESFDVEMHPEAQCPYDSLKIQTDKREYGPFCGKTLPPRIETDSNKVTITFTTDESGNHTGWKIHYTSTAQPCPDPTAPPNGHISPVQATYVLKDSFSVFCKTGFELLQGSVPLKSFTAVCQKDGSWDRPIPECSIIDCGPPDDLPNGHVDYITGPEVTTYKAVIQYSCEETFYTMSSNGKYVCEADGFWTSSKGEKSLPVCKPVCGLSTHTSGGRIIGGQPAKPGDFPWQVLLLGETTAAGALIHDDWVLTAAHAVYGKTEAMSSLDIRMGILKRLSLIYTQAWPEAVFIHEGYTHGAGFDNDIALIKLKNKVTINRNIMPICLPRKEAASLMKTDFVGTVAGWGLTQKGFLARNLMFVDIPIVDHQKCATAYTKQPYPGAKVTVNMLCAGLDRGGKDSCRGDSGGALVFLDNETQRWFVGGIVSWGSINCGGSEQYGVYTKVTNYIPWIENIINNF
T3 sequence (O00187 16-686 S633A): as the sequence (O00187 16-686) above, with S618A counted along it

B1: 17N16 mother clone, wild type IgG4 format (antibody, V domains shown)
VH: QVQLQQSGPGLVKPSQTLSLTCAISGDSVSSTSAAWNWIRQSPSRGLEWLGRTYYRSKWYNDYAVSVKSRITINPDTSKNQFSLQLNSVTPEDTAVYYCARDPFGVPFDIWGQGTMVTVSS
VL: SYVLTQPPSVSVAPGQTARITCGGNNIGSKNVHWYQQKPGQAPVLVVYDDSDRPSGIPERFSGSNSGNTATLTVSRVEAGDEADYYCQVWDTTTDHVVFGGGTKLTVL
- C3b deposition assay in 90% NHS, IC50 [1]: 15 nM
- C3 convertase assay using 1% human serum, IC50 (first experiment) [2]: 5.45 nM
- C3 convertase assay using 1% human serum, IC50 (second experiment) [2]: 3.09 nM
- C3b deposition assay in 1% human serum, IC50 [3]: ~20 nM

B2: MoAb #1 (OMS641), 17N16m_d17N9 IgG2 (antibody)
heavy: QVQLQQSGPGLVKPSQTLSLTCAISGDSVSSTSAAWNWIRQSPSRGLEWLGRTYYRSKWYNDYAVSVKSRITINPDTSKNQFSLQLNSVTPEDTAVYYCARDPFGVPFDIWGQGTMVTVSSASTKGPSVFPLAPCSRSTSESTAALGCLVKDYFPEPVTVSWNSGALTSGVHTFPAVLQSSGLYSLSSVVTVPSSNFGTQTYTCNVDHKPSNTKVDKTVERKCCVECPPCPAPPVAGPSVFLFPPKPKDTLMISRTPEVTCVVVDVSHEDPEVQFNWYVDGVEVHNAKTKPREEQFNSTFRVVSVLTVVHQDWLNGKEYKCKVSNKGLPAPIEKTISKTKGQPREPQVYTLPPSREEMTKNQVSLTCLVKGFYPSDIAVEWESNGQPENNYKTTPPMLDSDGSFFLYSKLTVDKSRWQQGNVFSCSVMHEALHNHYTQKSLSLSPGK
light: SYELIQPPSVSVAPGQTATITCAGDNLGKKRVHWYQQRPGQAPVLVIYDDSDRPSGIPDRFSASNSGNTATLTITRGEAGDEADYYCQVWDIATDHVVFGGGTKLTVLGQPKAAPSVTLFPPSSEELQANKATLVCLISDFYPGAVTVAWKADSSPVKAGVETTTPSKQSNNKYAASSYLSLTPEQWKSHRSYSCQVTHEGSTVEKTVAPTECS
notes: also called MoAb#1 (IgG2); 17N16_17N9
- Human C3 Assay IC50, 90% human serum [4]: 20 nM
- Human C4 assay IC50, 90% human serum [4]: 30 nM
- Selectivity over C1s [5]: > 5000 fold

B3: MoAb #2 (OMS642), 17N16m_d17N9 IgG4 (antibody)
heavy: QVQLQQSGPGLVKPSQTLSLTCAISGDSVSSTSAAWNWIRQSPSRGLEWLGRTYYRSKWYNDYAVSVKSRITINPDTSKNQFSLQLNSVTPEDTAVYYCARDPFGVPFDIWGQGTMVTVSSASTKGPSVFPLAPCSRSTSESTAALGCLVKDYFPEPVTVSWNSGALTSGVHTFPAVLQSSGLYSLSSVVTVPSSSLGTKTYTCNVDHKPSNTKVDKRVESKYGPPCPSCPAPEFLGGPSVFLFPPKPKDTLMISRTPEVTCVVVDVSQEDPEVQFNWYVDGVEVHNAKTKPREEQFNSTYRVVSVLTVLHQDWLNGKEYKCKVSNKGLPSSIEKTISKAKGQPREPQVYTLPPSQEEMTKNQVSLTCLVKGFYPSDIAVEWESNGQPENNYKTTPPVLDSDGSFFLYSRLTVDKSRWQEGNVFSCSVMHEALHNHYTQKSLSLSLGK
light: B2 light
notes: also called MoAb#2 (IgG4)
- Human C3 Assay IC50, 90% human serum [4]: 3 nM
- Human C4 assay IC50, 90% human serum [4]: 30 nM
- African Green Monkey C3 assay IC50 [6]: 26 nM
- Inhibition of Rat C3b IC50 [7]: 100 nM
- Selectivity over C1s [5]: > 5000 fold

B4: MoAb #3 (OMS643), 17N16m_d17N9 IgG4 (mutant, S228P) (antibody)
heavy: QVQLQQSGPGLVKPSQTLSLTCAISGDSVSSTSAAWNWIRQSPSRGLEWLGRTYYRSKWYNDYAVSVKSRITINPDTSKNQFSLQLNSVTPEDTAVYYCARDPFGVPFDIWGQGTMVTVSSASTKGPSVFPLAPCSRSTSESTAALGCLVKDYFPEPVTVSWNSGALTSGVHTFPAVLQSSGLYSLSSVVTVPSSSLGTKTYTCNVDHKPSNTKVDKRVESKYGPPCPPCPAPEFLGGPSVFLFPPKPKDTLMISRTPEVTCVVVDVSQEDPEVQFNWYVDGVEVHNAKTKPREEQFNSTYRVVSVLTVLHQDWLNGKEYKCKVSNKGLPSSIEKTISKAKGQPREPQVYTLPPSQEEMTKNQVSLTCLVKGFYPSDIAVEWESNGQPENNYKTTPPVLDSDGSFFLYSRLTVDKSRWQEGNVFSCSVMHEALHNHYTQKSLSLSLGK
light: B2 light
notes: also called MoAb#3 (IgG4 mutant)
- Human C3 Assay IC50, 90% human serum [4]: 12 nM
- Human C4 assay IC50, 90% human serum [4]: 30 nM
- Inhibition of Rat C3b IC50 [7]: 200 nM
- Selectivity over C1s [5]: > 5000 fold

B5: MoAb #4 (OMS644), 17D20_3521N11 IgG2 (antibody)
heavy: QVTLKESGPVLVKPTETLTLTCTVSGFSLSRGKMGVSWIRQPPGKALEWLAHIFSSDEKSYRTSLKSRLTISKDTSKNQVVLTMTNMDPVDTATYYCARIRRGGIDYWGQGTLVTVSSASTKGPSVFPLAPCSRSTSESTAALGCLVKDYFPEPVTVSWNSGALTSGVHTFPAVLQSSGLYSLSSVVTVPSSNFGTQTYTCNVDHKPSNTKVDKTVERKCCVECPPCPAPPVAGPSVFLFPPKPKDTLMISRTPEVTCVVVDVSHEDPEVQFNWYVDGVEVHNAKTKPREEQFNSTFRVVSVLTVVHQDWLNGKEYKCKVSNKGLPAPIEKTISKTKGQPREPQVYTLPPSREEMTKNQVSLTCLVKGFYPSDIAVEWESNGQPENNYKTTPPMLDSDGSFFLYSKLTVDKSRWQQGNVFSCSVMHEALHNHYTQKSLSLSPGK
light: QPVLTQPPSLSVSPGQTASITCSGEKLGDKYAYWYQQKPGQSPVLVMYQDKQRPSGIPERFSGSNSGNTATLTISGTQAMDEADYYCQAWDSSTAVFGGGTKLTVLGQPKAAPSVTLFPPSSEELQANKATLVCLISDFYPGAVTVAWKADSSPVKAGVETTTPSKQSNNKYAASSYLSLTPEQWKSHRSYSCQVTHEGSTVEKTVAPTECS
- African Green Monkey C3 assay IC50 [6]: 18 nM

B6: MoAb #5 (OMS645), 17D20_3521N11 IgG4 (antibody)
heavy: not shown
light: B5 light
- African Green Monkey C3 assay IC50 [6]: 16 nM
- Inhibition of Rat C3b IC50 [7]: 500 nM

B7: MoAb #6 (OMS646), 17D20_3521N11 IgG4 mutant (S228P hinge) (antibody)
heavy: not shown
light: B5 light
- African Green Monkey C3 assay IC50 [6]: 14 nM
- Inhibition of Rat C3b IC50 [7]: > 500 nM

B8: scFv mother clone 3F22 (scFv)
scFv: QVQLQQSGPGLVKPSQTLSLTCAISGDSVSSNSAAWNWIRQSPSRGLEWLGRTYYRSKWYNDYAVSVKSRITINPDTSKNQFSLQLNSVTPEDTAVYYCARDPFGVPFDIWGQGTMVTVSSKLSGSASAPKLEEGEFSEARVSYVLTQPPSVSVAPGQTARVTCGGNNIRSKNVHWYQQKPGQAPVLVVYDDTDRPSGIPERFSGSNSGNTATLTVSRVEAGDEADYYCQVWDTTTDHVVFGGGTKLTVLAAAGSEQKLISEEDLNSHHHHHH
- Inhibitory activity in Human Serum IC50 (C3b deposition, 0.5% human serum) [8]: 20.6 nM
- Functional IC50, C3b deposition, human serum Exp #1 [9]: 20.6 nM
- Functional IC50, C3b deposition, human serum Exp #2 [9]: 36.7 nM
- Functional IC50, C3b deposition, human serum Exp #3 [9]: 41.4 nM
- Functional IC50, C3b deposition, human serum Exp #4 [9]: 68.8 nM
- Functional IC50, C3b deposition, non-human primate serum Exp #1 [10]: 114 nM
- Functional IC50, C3b deposition, non-human primate serum Exp #2 [10]: 173 nM

B9: scFv mother clone 9P13 (scFv)
scFv: B8 scFv with V145E, P149L, L247V
- Inhibitory activity in Human Serum IC50 (C3b deposition, 0.5% human serum) [8]: 28.9 nM
- Functional IC50, C3b deposition, human serum Exp #1 [9]: 28.9 nM
- Functional IC50, C3b deposition, human serum Exp #2 [9]: 120 nM
- Functional IC50, C3b deposition, human serum Exp #3 [9]: 17.3 nM
- Functional IC50, C3b deposition, human serum Exp #4 [9]: 24.3 nM
- Functional IC50, C3b deposition, non-human primate serum Exp #1 [10]: 99.3 nM
- Functional IC50, C3b deposition, non-human primate serum Exp #2 [10]: 77.1 nM
- Kd [11]: 220 nM

B10: scFv mother clone 18L16 (scFv)
scFv: QVTLKESGPVLVKPTETLTLTCTVSGFSLSNARMGVSWIRQPPGKALEWLAHIFSNDEKSYSTSLKSRLTISKDTSKSQVVLTMTNMDPVDTATYYCARMAILTAGGMDVWGQGTTVTVSSKLSGSASAPKLEEGEFSEARVSYVLTQPPSVSASPGQTASITCSGDKLGDKYVSWYQQKPGRSPVLVIYRDTKRPSGIPERFSGSNYGNTATLTISGTQAVDEADYYCQAWDSGSGVFGGGTKVTVLAAAGSEQKLISEEDLNSHHHHHH
- Inhibitory activity in Human Serum IC50 (C3b deposition, 0.5% human serum) [8]: 6.1 nM
- Functional IC50, C3b deposition, human serum Exp #1 [9]: 6.1 nM
- Functional IC50, C3b deposition, human serum Exp #2 [9]: 96.8 nM
- Functional IC50, C3b deposition, human serum Exp #3 [9]: 52.3 nM
- Functional IC50, C3b deposition, human serum Exp #4 [9]: 53.5 nM
- Functional IC50, C3b deposition, non-human primate serum Exp #1 [10]: 65.6 nM
- Functional IC50, C3b deposition, non-human primate serum Exp #2 [10]: 128 nM
- C3 Assay IC50 in dilute serum (1%), human serum Exp #1 [12]: 53 nM
- C3 Assay IC50 in dilute serum (1%), human serum Exp #2 [12]: 52 nM
- C3 Assay IC50 in dilute serum (1%), human serum Exp #3 [12]: 97 nM
- C3 Assay IC50 in dilute serum (1%), human serum mean [12]: 67 nM
- C3 Assay IC50, non-human primate serum Exp #1 [13]: 65 nM
- C3 Assay IC50, non-human primate serum Exp #2 [13]: 154 nM
- C3 Assay IC50, non-human primate serum mean [13]: 110 nM
- C3 convertase assay using 1% human serum, IC50 (first experiment) [2]: 160 nM
- C3 convertase assay using 1% human serum, IC50 (second experiment) [2]: 193 nM

B11: 18L16 mother clone, wild type IgG4 format (antibody, V domains shown)
VH: QVTLKESGPVLVKPTETLTLTCTVSGFSLSNARMGVSWIRQPPGKALEWLAHIFSNDEKSYSTSLKSRLTISKDTSKSQVVLTMTNMDPVDTATYYCARMAILTAGGMDVWGQGTTVTVS
VL: LTQPPSVSASPGQTASITCSGDKLGDKYVSWYQQKPGRSPVLVIYRDTKRPSGIPERFSGSNYGNTATLTISGTQAVDEADYYCQAWDSGSGVFGGGTKVTVLA
- C3 convertase assay using 1% human serum, IC50 (first experiment) [2]: 33.9 nM
- C3 convertase assay using 1% human serum, IC50 (second experiment) [2]: 22 nM
- C3 convertase assay using 1% human serum, fold improvement of IC50 (scFv to divalent form), first experiment [2]: ~4.7 fold
- C3 convertase assay using 1% human serum, fold improvement of IC50 (scFv to divalent form), second experiment [2]: ~8.7 fold
- C3b deposition assay in 1% human serum, IC50 [3]: 59 nM

B12: scFv mutagenesis clone #35 of 17D20 (scFv)
scFv: QVTLKESGPVLVKPTETLTLTCTVSGFSLSRGKMGVSWIRQPPGKALEWLAHIFSSDEKSYRTSLKSRLTISKDTSKNQVVLTMTNMDPVDTATYYCARIRRGGIDYWGQGTLVTVSSKLSGSASAPKLEEGEFSEARVQPVLTQPPSVSVSPGQTASITCSGDKLGDKFAYWYQQKPGHSPVLVIYQDNKRPSGIPGRFSGSNSGNTATLTISGTQAMDEADYYCQAWDSSTAVFGTGTKVTVLAAAGSEQKLISEEDLNSHHHHHH
notes: the mother scFv entry is used with this change; also called 17D20md#35 (monomer); 17D20md35
- Kd [14]: 1.2 nM

B13: 17D20 mother clone, wild type IgG4 format (antibody, V domains shown)
VH: QVTLKESGPVLVKPTETLTLTCTVSGFSLSRGKMGVSWIRQPPGKALEWLAHIFSSDEKSYRTSLKSRLTISKDTSKNQVVLTMTNMDPVDTATYYCARIRAGGIDYWGQGTLVTVSS
VL: QPVLTQPPSVSVSPGQTASITCSGDKLGDKFAYWYQQKPGHSPVLVIYQDNKRPSGIPGRFSGSNSGNTATLTISGTQAMDEADYYCQAWDSSTAVFGTGTKVTVLA
- C4b deposition in 90% human serum, IC50 relative to the C3b deposition assay [1]: ~3 fold
- C3 convertase assay using 1% human serum, IC50 (first experiment) [2]: 7.39 nM
- C3 convertase assay using 1% human serum, IC50 (second experiment) [2]: 10.3 nM
- C3b deposition assay in 1% human serum, IC50 [3]: 22 nM
